Columns and labels:
Experiment in all cases: cell-based or functional assay
[1] = molecular target: SAVINASE, subtilisin derived from Bacillus clausii (previously Bacillus lentus NCIB 10309) (Bacillus clausii (previously Bacillus lentus NCIB 10309)) (UniProt P29600)
[2] = molecular target: Sub.Novo(Y217L), mutant of subtilisin from Bacillus amyloliquefaciens (Bacillus amyloliquefaciens) (UniProt P00782)
[3] = molecular target: Sub.Novo, subtilisin from Bacillus amyloliquefaciens (Bacillus amyloliquefaciens) (UniProt P00782)
[4] = molecular target: protease derived from Acremonium chrysogenum ATCC 48272 (Acremonium chrysogenum ATCC 48272)
[5] = molecular target: protease derived from Aspergillus sp. CBS 102448
[6] = molecular target: protease derived from Bacillus alcalophilus NCIMB 10438 (Bacillus alcalophilus NCIMB 10438)
[7] = molecular target: protease derived from Bacillus sp. NCIMB 40484 (Bacillus sp. NCIMB 40484)
[8] = molecular target: protease derived from Fusarium oxysporum IFO 4471 (Fusarium oxysporum IFO 4471)
[9] = molecular target: protease derived from Paecilomyces lilacinus CBS 102449 (Paecilomyces lilacinus CBS 102449)

Measured: Residual activity (%)

Streptomyces Subtilisin Inhibitor (SSI) (from UniProt P01006 32-144)
4.3%: [7]
0%: [1] | [2] | [6]
0.1%: all other assays above

Source: patent EP1257175B1
